Laboratory results reported in the supplement of paper PMC10724198.
± gives the standard deviation of the averaged measurements.

System: Saccharomyces cerevisiae
Test: protein stability index of tFT-peptide fusion (C-terminal peptide) (PSI (0-1 scale)); higher = more stable (slower turnover)
Details: genetic background: wild type; temperature: 30 C
Description: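 Multiplexed protein stability (MPS) profiling in S. cerevisiae. Random 12-aa peptides (tFT-X12 library) are fused to the C-terminus of a sfGFP-mCherry tandem fluorescent timer, after mCherry and a GGGS linker. Cells are FACS-sorted into 8 mCherry/sfGFP bins and deep-sequenced. The protein stability index (PSI) is the read-weighted bin average, scaled from 0 (unstable) to 1 (stable). Only peptides with >10 reads are reported; cells were grown at 30 °C in SC-His with glucose.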
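Further: PSI is a weighted mean of sequencing reads over stability bins, variants kept only with over 10 reads, mCherry proximal and sfGFP distal, peptide attached via GGGS linker.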

Sequence: RGAEACGGVPGQ
- protein stability index: 0.671 ± 0.024

Sequence: PPSPSPPPPPPT
- protein stability index: 0.648 ± 0.04

Sequence: KNESIRKKKPKK
- protein stability index: 0.734 ± 0.033

Sequence: PRLFLFRSSFPP
- protein stability index: 0.681 ± 0.048

Sequence: CKRDENKKIILR
- protein stability index: 0.727 ± 0.014

Sequence: LFLSLSGSYRCI
- protein stability index: 0.532 ± 0.079

Sequence: IPDATGYGWVRH
- protein stability index: 0.691 ± 0.018

Sequence: ADAFDRGRISVV
- protein stability index: 0.792 ± 0.11

Sequence: LPLPPPPAPPPL
- protein stability index: 0.7015 ± 0.0012

Sequence: QVDVLVCKLEVP
- protein stability index: 0.672 ± 0.11

Sequence: LFFGVACSWFSV
- protein stability index: 0.621 ± 0.013

Sequence: GLGLAFRGSFVL
- protein stability index: 0.69 ± 0.056

Sequence: PYLLGPIPGIPR
- protein stability index: 0.666 ± 0.059

Sequence: SHPAPGSPTSPS
- protein stability index: 0.67064 ± 0.00027

Sequence: CWSSPSFSLLFP
- protein stability index: 0.779 ± 0.028

Sequence: PPVLPPPAPLPP
- protein stability index: 0.6548 ± 0.0047

Sequence: SALPPSRLPRSP
- protein stability index: 0.713 ± 0.049

Sequence: PPATTSATRVRP
- protein stability index: 0.698 ± 0.043

Sequence: NIIQTYITLNEL
- protein stability index: 0.74 ± 0.12

Sequence: HGLVLLCINDIV
- protein stability index: 0.6312 ± 0.001

Sequence: TEYHIVTLPRRC
- protein stability index: 0.625 ± 0.076

Sequence: GRVEDAFSGGGI
- protein stability index: 0.643 ± 0.089

Sequence: LFAAPARTSAPC
- protein stability index: 0.779 ± 0.055

Sequence: GSIWVVGWGQGV
- protein stability index: 0.711 ± 0.032

Sequence: FVRFLVGGLGRW
- protein stability index: 0.606 ± 0.05

Sequence: LTSWAKRMGLGD
- protein stability index: 0.731 ± 0.1

Sequence: AGEDRGSRWVCI
- protein stability index: 0.699 ± 0.032

Sequence: DSILYKKYKQLG
- protein stability index: 0.559 ± 0.024

Sequence: SHLAYVKWYIGD
- protein stability index: 0.6305 ± 0.0042

Sequence: SFPPPLPPSPTP
- protein stability index: 0.697 ± 0.036

Sequence: PLTNKTHRPPDK
- protein stability index: 0.702 ± 0.0091

Sequence: ASPLTIHSPNLL
- protein stability index: 0.725 ± 0.064

Sequence: AVYSACSRVGWV
- protein stability index: 0.6937 ± 0.0061

Sequence: RGSGCAFLFAWF
- protein stability index: 0.654 ± 0.092

Sequence: QDSDRSLTPKPL
- protein stability index: 0.688 ± 0.028

Sequence: SPHSRAPPRFPP
- protein stability index: 0.726 ± 0.14

Sequence: SPPPTDPPQPPL
- protein stability index: 0.7035 ± 0.0018

Sequence: GGDGAVSRRWGR
- protein stability index: 0.685 ± 0.015

Sequence: PPPHPPPPPLPS
- protein stability index: 0.635 ± 0.021

Sequence: VGVWTGWDVDCH
- protein stability index: 0.742 ± 0.076

Sequence: AGCLSGPVDILL
- protein stability index: 0.703 ± 0.046

Sequence: CEVCRGSDRCDV
- protein stability index: 0.609 ± 0.015

Sequence: LVLTLIDGSWNV
- protein stability index: 0.7011 ± 0.0056

Sequence: RSPPAPPHSCPP
- protein stability index: 0.69 ± 0.14

Sequence: PPPLPPRMPPPF
- protein stability index: 0.72 ± 0.036

Sequence: DWSHLLTSHAII
- protein stability index: 0.703 ± 0.041

Sequence: GCLIAGGIDCPP
- protein stability index: 0.66 ± 0.072

Sequence: LLPALPPRCISF
- protein stability index: 0.7343 ± 0.005

Sequence: SIVGGVVRVLCG
- protein stability index: 0.603 ± 0.048

Sequence: KKTYQQKIEEVV
- protein stability index: 0.782 ± 0.14

Sequence: GVGWGSSWVGYG
- protein stability index: 0.898 ± 0.092

Sequence: SGFLLVLRRPRE
- protein stability index: 0.655 ± 0.05

Sequence: DNEMLQICRSRW
- protein stability index: 0.774 ± 0.029

Sequence: KKKKVKKQRISR
- protein stability index: 0.713 ± 0.11

Sequence: VLACVAQAACCR
- protein stability index: 0.556 ± 0.054

Sequence: VPPSKQRSRIKD
- protein stability index: 0.675 ± 0.028

Sequence: KKNNKKNNKKKQ
- protein stability index: 0.678 ± 0.078

Sequence: SFACVYVPPALF
- protein stability index: 0.712 ± 0.025

Sequence: QKRAREKAPTPD
- protein stability index: 0.729 ± 0.012

Sequence: LIAGLNLASYGL
- protein stability index: 0.643 ± 0.1

Sequence: GWGPGGSERCGL
- protein stability index: 0.711 ± 0.025

Sequence: LPSPPPAPTPGP
- protein stability index: 0.681 ± 0.019

Sequence: PSGSFPPCLGSP
- protein stability index: 0.653 ± 0.018

Sequence: VCLPPPPLPPSC
- protein stability index: 0.692 ± 0.041

Sequence: KKRRTKKENNNI
- protein stability index: 0.687 ± 0.0089

Sequence: DQNNSQIRHEQP
- protein stability index: 0.575 ± 0.03

Sequence: LPPPSPTGTFPP
- protein stability index: 0.7 ± 0.095

Sequence: LLYSTRRCIFEF
- protein stability index: 0.645 ± 0.034

Sequence: SPSPAPPTRSPS
- protein stability index: 0.696 ± 0.023

Sequence: GLVWGGGGTVGG
- protein stability index: 0.73 ± 0.12

Sequence: WFHSANLFLSLS
- protein stability index: 0.705 ± 0.077

Sequence: RKKPRKLRETDN
- protein stability index: 0.649 ± 0.053

Sequence: KKKKTEKKKTKQ
- protein stability index: 0.656 ± 0.035

Sequence: CLPSQSAESLTF
- protein stability index: 0.664 ± 0.02

Sequence: LDGAGFLLSWYH
- protein stability index: 0.749 ± 0.013

Sequence: SLRLHCSRQRRP
- protein stability index: 0.649 ± 0.048

Sequence: SLLLPLPLPVRL
- protein stability index: 0.582 ± 0.0086

Sequence: PLFSFLPPPLPP
- protein stability index: 0.697 ± 0.017

Sequence: KKIRKGIGNKHI
- protein stability index: 0.651 ± 0.017

Sequence: GMGTWSSNRREC
- protein stability index: 0.872 ± 0.18

Sequence: TKKKNTKKNNNT
- protein stability index: 0.67 ± 0.095

Sequence: GGTPGSYDIIGV
- protein stability index: 0.728 ± 0.016

Sequence: MAICRVLSQVFL
- protein stability index: 0.686 ± 0.12

Sequence: LRAWPILPSRVL
- protein stability index: 0.641 ± 0.014

Sequence: FVCRQSGIWHLR
- protein stability index: 0.686 ± 0.029

Sequence: SVGRPVACLFVH
- protein stability index: 0.5115 ± 0.0019

Sequence: SPPLLPGVLSES
- protein stability index: 0.645 ± 0.055

Sequence: LVPPPPPPSPPP
- protein stability index: 0.6457 ± 0.004

Sequence: VGGGGRARRRGS
- protein stability index: 0.701 ± 0.013

Sequence: NTLTSCRPVASK
- protein stability index: 0.704 ± 0.037

Sequence: SILRLRSVVPAE
- protein stability index: 0.6457 ± 0.0027

Sequence: LYPSFSHTPPPT
- protein stability index: 0.69 ± 0.056

Sequence: TNGHNGQENGEE
- protein stability index: 0.602 ± 0.06

Sequence: PPSHPLSPLSRL
- protein stability index: 0.722 ± 0.067

Sequence: EFVFLLSNTFNS
- protein stability index: 0.749 ± 0.03

Sequence: RYFCPVLGPVNF
- protein stability index: 0.652 ± 0.046

Sequence: RPLLPPTFATSF
- protein stability index: 0.751 ± 0.038

Sequence: PLPPPLPQAPPT
- protein stability index: 0.695 ± 0.021
